Data as given in publication doi:10.1101/2022.08.08.503162.
pKd: −log10 of the molar value.

Target: His6-tagged luminal domain (ectodomain) of human SR-B1, amino acids 33-444 (human) (UniProt Q8WTV0)
Assay: MST

full-length APOA1-Milano expressed in 293F cells (protein A-APOA1-Milano construct) (from UniProt P02647 19-267) (natural protein)
pKd: 5.69
